# Experimental data as given in the supplement of paper PMC9112550, “Optimization of the antimicrobial peptide Bac7 by deep mutational scanning” (BMC Biology, 2022).
# Tested on: Escherichia coli TOP10
# Assay: shrunken log2 fold change of peptide-encoding DNA abundance (4.5 h post-induction vs induction); higher = less antimicrobial activity (less host growth inhibition)
# Conditions: time post-induction: 4.5 h; library: site-saturation at positions 5, 18, 19, 20
# 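Note: peptides expressed intracellularly from a pBAD plasmid library in pooled LB shake-flask culture, induced with 0.3% L-arabinose, DNA abundance read by NGS, three biological replicates, DESeq2 with apeglm shrinkage.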
row,Sequence,shrunken log2 fold change
1,RRIRCRPPRLPRPRPRPDASPRP,0.27
2,RRIRNRPPRLPRPRPRPDPDPRP,0.0692
3,RRIRERPPRLPRPRPRPERTPRP,0.0163
4,RRIRLRPPRLPRPRPRPYQEPRP,-0.46
5,RRIRLRPPRLPRPRPRPMFPPRP,-0.281
6,RRIRTRPPRLPRPRPRPECAPRP,0.459
7,RRIRARPPRLPRPRPRPASFPRP,0.387
8,RRIRDRPPRLPRPRPRPSHWPRP,-0.178
9,RRIRSRPPRLPRPRPRPNTYPRP,-0.232
10,RRIRCRPPRLPRPRPRPHQYPRP,-0.05
11,RRIRRRPPRLPRPRPRPEVPPRP,0.0172
12,RRIRYRPPRLPRPRPRPHNNPRP,-1.16
13,RRIRERPPRLPRPRPRPWDFPRP,0.0275
14,RRIRGRPPRLPRPRPRPTHHPRP,0.413
15,RRIRFRPPRLPRPRPRPHMVPRP,-0.809
16,RRIRCRPPRLPRPRPRPAVKPRP,-0.132
17,RRIRCRPPRLPRPRPRPFFVPRP,-0.209
18,RRIRLRPPRLPRPRPRPTDEPRP,-0.111
19,RRIRTRPPRLPRPRPRPGYDPRP,-0.697
20,RRIRCRPPRLPRPRPRPICQPRP,-0.0542
21,RRIRFRPPRLPRPRPRPEQWPRP,-0.156
22,RRIRPRPPRLPRPRPRPNGEPRP,0.137
23,RRIRMRPPRLPRPRPRPGASPRP,0.854
24,RRIRWRPPRLPRPRPRPNDAPRP,0.0398
25,RRIRTRPPRLPRPRPRPFGMPRP,0.00903
26,RRIRARPPRLPRPRPRPDTKPRP,0.0293
27,RRIRFRPPRLPRPRPRPKVCPRP,0.0321

row,Sequence,shrunken log2 fold change
1,RRIRGRPPRLPRPRPRPWVTPRP,0.0039
2,RRIRHRPPRLPRPRPRPSNSPRP,-0.798
3,RRIRFRPPRLPRPRPRPCPQPRP,-0.697
4,RRIRMRPPRLPRPRPRPYWLPRP,-0.0329
5,RRIRDRPPRLPRPRPRPEEAPRP,2.05
6,RRIRIRPPRLPRPRPRPTLEPRP,2.35
7,RRIRPRPPRLPRPRPRPMKFPRP,-0.248
8,RRIRHRPPRLPRPRPRPWWQPRP,0.00354
9,RRIRNRPPRLPRPRPRPWECPRP,-0.00145
10,RRIRFRPPRLPRPRPRPSCRPRP,-0.145
11,RRIRFRPPRLPRPRPRPESMPRP,-0.188
12,RRIRSRPPRLPRPRPRPYQTPRP,-0.0406
13,RRIRFRPPRLPRPRPRPAVSPRP,-0.108
14,RRIRKRPPRLPRPRPRPNRMPRP,0.00972
15,RRIRMRPPRLPRPRPRPSDCPRP,0.206
16,RRIRDRPPRLPRPRPRPCQSPRP,-0.121
17,RRIRKRPPRLPRPRPRPVNFPRP,-0.0174
18,RRIRWRPPRLPRPRPRPQPYPRP,-0.166
19,RRIRDRPPRLPRPRPRPTENPRP,0.277
20,RRIRNRPPRLPRPRPRPWSEPRP,0.0632
21,RRIRLRPPRLPRPRPRPPFMPRP,0.086
22,RRIRQRPPRLPRPRPRPHRWPRP,0.057
23,RRIRIRPPRLPRPRPRPMCHPRP,-0.316
24,RRIRGRPPRLPRPRPRPRIMPRP,0.506
25,RRIRSRPPRLPRPRPRPMRGPRP,0.944
26,RRIRKRPPRLPRPRPRPCDYPRP,-0.0336
27,RRIRRRPPRLPRPRPRPWFIPRP,0.0648
